Values quoted from earlier work in publication PMC9464622, “The collectin SP-A and its trimeric recombinant fragment protect alveolar epithelial cells from the cytotoxic and proinflammatory effects of human cathelicidin in vitro” (Frontiers in Immunology, 2022).

System: LL-37 and β-defensin 3
Text: The host appears to protect its own cells from LL-37 cytotoxicity by several mechanisms. […] In addition, the C1q globular head receptor (gC1qR, also known as p33) protects ...

B1: p33: negatively charged protein expressed on the surface of various cell types (protein, UniProt Q07021 74-282, looked up)
Complement component 1 Q …: LHTDGDKAFVDFLSDEIKEERKIQKHKTLPKMSGGWELELNGTEAKLVRKVAGEKITVTFNINNSIPPTFDGEEEPSQGQKVEEQEPELTSTPNFVVEVIKNDDGKKALVLDCHYPEDEVGQEDEAESDIFSIREVSFQSTGESEWKDTNYTLNTDSLDWALYDHLMDFLADRGVDNTFADELVELSTALEHQEYITFLEDLKSFVKSQ
binding of LL-37 and β-defensin 3: binds LL-37 and β-defensin 3 with high affinity
